Experimental data reported in US20100317830A1, “BACE455, AN ALTERNATIVE SPLICE VARIANT OF THE HUMAN BETA-SECRETASE” (EXONHIT THERAPEUTICS SA, priority 2003, published 2010).

Tests used:
[1] = tested on: endogenously expressed APP isoforms in SH-SY5Y cells; assay: Western blot of C99 fragment generation in transfected SH-SY5Y cells; assay type: cell-based, human
Experimental: SH-SY5Y cells for transfection were grown to 80% confluence in Dulbecco's modified Eagle's medium (DMEM) with 10% fetal bovine serum. Transfections were performed using LipofectAmine Plus (Gibco-BRL) with […] per 10*10<6>cells. Three days posttransfection, cells were passaged into medium containing G418 at a concentration of 400 μg/ml. After twenty days growth in selective medium, individual clones were selected and plated into each well of one 96 well plate containing growth medium plus G418. Clones were expanded from the 96 well plate to a 24 well plate and then to a 6 well plate. Clones which had lost initial neuronal-like morphology were not amplified. BACE455 or BACE501 expression in selected clones was assayed by Western Blotting and immunohistochemical analysis using Cterminal-specific antibody.
Cells were harvested 3 days after plating. Cells were washed twice with PBS and lysed in 1 ml CellLytic solution (Sigma) plus protease inhibitors cocktail (Roche Diagnostics) for 15 min. […] Following electrotransfer of the separated polypeptides to PVDF membranes, APP and C99 proteolytic fragment were detected with C-terminal-specific rabbit anti-APP antibody (Serotec, UK) at 1/500 in PBS-Tween 20 0.1%, and the antibody-antigen complexes were visualized using alkaline phosphatase conjugated goat anti-rabbit antibodies (1/5000). […]

[2] = tested on: endogenously expressed APP in SH-SY5Y cells; assay: Aβ1-40 double antibody sandwich ELISA on conditioned medium of transfected SH-SY5Y cells; assay type: cell-based, human; settings: SH-SY5Y cells transfected with BACE construct; control = empty vector, set as 100%
Experimental: Cells were harvested 3 days after plating and processed for Western Blotting experiments as described above.
Cell culture supernatants harvested 72 hours after plating were analyzed in a standard double antibody isoform-specific Aβ1-40 ELISA (BioSource International) as follows. […] The detecting antibody is specific for Abeta 1-40 and the conjugated secondary antibody is an anti-rabbit IgG conjugated to horseradish peroxydase. Synthetic human Aβ1-40 standard peptides are serially diluted in the supplied sample diluent for the generation of standard curves.
Human Abeta 1-40 standards were added after washing the plate, as well as 100 μl/well of sample, e.g., conditioned medium of transfected cells. The plate was incubated at 4[deg.] C. overnight. The next day, after washing the plate four times, 100 μl/well rabbit detection antibody was added and incubated for 2 hours on an orbital plate shaker at 20 degree C. […] 100 μl/well stop solution was added and absorbance of each well was read at 450 nm within two hours, with a solution of 100 μl each of chromogen and stop solution as the blank. […] The samples with absorbance values falling within the standard curve were extrapolated (by comparison to the values obtained for the A-β40 and A-β42 standard peptides analyzed on the same plate) from the standard curves and expressed in pg/ml culture medium.

| Molecule | C99 production ([1]; SH-SY5Y cells transformed with the BACE455 construct vs empty vector) | APP levels ([1]; overexpression of BACE455 in SH-SY5Y cells) | Aβ release (% of control) [2] |
| --- | --- | --- | --- |
| BACE455: new isoform of human beta-secretase (BACE) lacking exon 4, 455 amino acid residues, SEQ ID NO: 2 (protein, listed as Homo sapiens) MAQALPWLLLWMGAGVLPAHGTQHGIRLPLRSGLGGAPLGLRLPRETDEEPEEPGRRGSFVEMVDNLRGKSGQGYYVEMTVGSPPQTLNILVDTGSSNFAVGAAPHPFLHRYYQRQLSSTYRDLRKGVYVPYTQGKWEGELGTDLVSIPHGPNVTVRANIAAITESDKFFINGSNWEGILGLAYAEIARIIGGIDHSLYTGSLWYTPIRREWYYEVIIVRVEINGQDLKMDCKEYNYDKSIVDSGTTNLRLPKKVFEAAVKSIKAASSTEKFPDGFWLGEQLVCWQAGTTPWNIFPVISLYLMGEVTNQSFRITILPQQYLRPVEDVATSQDDCYKFAISQSSTGTVMGAVIMEGFYVVFDRARKRIGFAVSACHVHDEFRTAAVEGPFVTLDMEDCGYNIPQTDESTLMTIAYVMAAICALFMLPLCLMVCQWRCLRCLRQQHDDFADDISLLK | strongly increased | no influence | 199.95+18 % of control |
| BACE501: native full-length human BACE isoform (variant a), NM_012104 (protein, UniProt P56817 1-501, looked up, full-length, native full-length human BACE isoform (variant a), NM_012104) MAQALPWLLLWMGAGVLPAHGTQHGIRLPLRSGLGGAPLGLRLPRETDEEPEEPGRRGSFVEMVDNLRGKSGQGYYVEMTVGSPPQTLNILVDTGSSNFAVGAAPHPFLHRYYQRQLSSTYRDLRKGVYVPYTQGKWEGELGTDLVSIPHGPNVTVRANIAAITESDKFFINGSNWEGILGLAYAEIARPDDSLEPFFDSLVKQTHVPNLFSLQLCGAGFPLNQSEVLASVGGSMIIGGIDHSLYTGSLWYTPIRREWYYEVIIVRVEINGQDLKMDCKEYNYDKSIVDSGTTNLRLPKKVFEAAVKSIKAASSTEKFPDGFWLGEQLVCWQAGTTPWNIFPVISLYLMGEVTNQSFRITILPQQYLRPVEDVATSQDDCYKFAISQSSTGTVMGAVIMEGFYVVFDRARKRIGFAVSACHVHDEFRTAAVEGPFVTLDMEDCGYNIPQTDESTLMTIAYVMAAICALFMLPLCLMVCQWRCLRCLRQQHDDFADDISLLK | – | – | 193.15 ± 2.73 % of control |
